Laboratory results published in US20090029392.

Test system: T1, Biotin-GDEVDGC biotinylated peptide substrate for caspase-3, coupled to aminated CLIO
T1 sequence: GDEVDGC

Caspase 3
T2 relaxation time (dispersal of the aggregate after cleavage of the peptide): When the inhibitor is not added or capase is added, the aggregate is dispersed resulting in an increase of T2
